In patent US20020031818A1 (published 2002):

Target: GST-Mdm2, wild type, bacterially expressed and purified (pGEX-4T-1) (human, UniProt Q00987 1-491)
Test: cell-based or functional assay

Chain of GST-Mdm2, wild type, bacterially expressed and purified (pGEX-4T-1) (Q00987 whole entry): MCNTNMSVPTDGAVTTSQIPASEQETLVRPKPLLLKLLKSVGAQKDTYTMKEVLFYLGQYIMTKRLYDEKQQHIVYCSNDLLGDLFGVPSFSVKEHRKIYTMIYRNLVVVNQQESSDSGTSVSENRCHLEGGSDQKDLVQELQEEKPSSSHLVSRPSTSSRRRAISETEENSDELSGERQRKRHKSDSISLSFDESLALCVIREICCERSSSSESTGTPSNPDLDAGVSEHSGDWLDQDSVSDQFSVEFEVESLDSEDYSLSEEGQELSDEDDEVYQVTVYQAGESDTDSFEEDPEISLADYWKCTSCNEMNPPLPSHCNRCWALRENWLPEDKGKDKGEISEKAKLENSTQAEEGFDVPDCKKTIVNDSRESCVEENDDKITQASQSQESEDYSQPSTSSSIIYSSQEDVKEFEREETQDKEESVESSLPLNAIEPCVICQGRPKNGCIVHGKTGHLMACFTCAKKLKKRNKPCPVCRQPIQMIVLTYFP

B1: p19^ARF, wild type (other, UniProt Q64364 1-169, looked up)
chain: MGRRFLVTVRIQRAGRPLQERVFLVKFVRSRRPRTASCALAFVNMLLRLERILRRGPHRNPGPGDDDGQRSRSSSSAQLRCRFELRGPHYLLPPGARRSAGRLPGHAGGAARVRGSAGCARCLGSPAARLGPRAGTSRHRAIFAFRWVLFVFRWVVFVYRWERRPDRRA
Which “molar ratio required for inhibition of Mdm2 sumoylation” value does the source give for B1 here?
Its value is ~1 molar ratio p19^ARF:Mdm2.
